± gives the uncertainty stated by the source.
B1: POU domain, class 2, transcription factor 3, residues 186 to 260; numbered along this chain, Q9UKI9 (parent)
chain: SDLEELEKFAKTFKQRRIKLGFTQGDVGLAMGKLYGNDFSQTTISRFEALNLSFKNMCKLKPLLEKWLNDAESSP

Variants of: B1
Experiment: abundance fitness (aPCA) (normalised: wild type 0, dead -1); higher = more abundant; growth selection in yeast, the domain comes from the species named
Details: Homo sapiens

| Variant | abundance fitness |
| --- | --- |
| SDLEELEKFAKTFKQRRIKLGFTQGDVGLAMGKLYGNDFSQTTISRFEALNLSFKNSCKLKPLLEKWLNDAESSP [M57S] | -0.02 ± 0.047 |
| SDLEELEKFAKTFKQRRIKLGFTQGDVGLAMGKLYGNDFSQTTISRFEALNLSFKNTCKLKPLLEKWLNDAESSP [M57T] | -0.25 ± 0.042 |
| SDLEELEKFAKTFKQRRIKLGFTQGDVGLAMGKLYGNDFSQTTISRFEALNLSFKNICKLKPLLEKWLNDAESSP [M57I] | -0.305 ± 0.097 |
| SDLEELEKFAKTFKQRRIKLGFTQGDVGLAMGKLYGNDFSQTTISRFEAMNLSFKNMCKLKPLLEKWLNDAESSP [L50M] | -0.02 ± 0.045 |
| SDLEELEKFAKTFKQRRIKLGFTQGDVGLAMGKLYGNDFSQTTISRFEAGNLSFKNMCKLKPLLEKWLNDAESSP [L50G] | 0.031 ± 0.027 |
| SDLEELEKFAKTFKQRRIKLGFTQGDVGLAMGKLYGNDFSQTTISRFEALNLSFKNMCKLKPLLSKWLNDAESSP [E65S] | -0.096 ± 0.037 |
| SDLEELEKFAKTFKQRRIKLGFTQGDVGLAMGKLYGNDFSQTTISRFEALNLSFKNMCKLKPLLAKWLNDAESSP [E65A] | -0.07 ± 0.033 |
| SDLEELEKFAKTFKQRRIKLGFTQGDVGLAMGKLYGNDFSQTTISRFEALNLSFKNMCKLKPLLMKWLNDAESSP [E65M] | 0.043 ± 0.058 |
| SDLEELEKFAKTFKQRRIKLGFTQGDVGLAMGKLYGNDFSQTTISRFEALNLSFKNMCKLKPLLYKWLNDAESSP [E65Y] | -0.215 ± 0.074 |
| SDLEELEKFAKTFKQRRIKLGFTQGDVGLAMGKLYGNDFSQTTISRFEALNLSFKNMCDLKPLLEKWLNDAESSP [K59D] | -0.039 ± 0.055 |
| SDLEELEKFAKTFKQRRIKLGFTQGDVGLAMGKLYGNDFSQTTISRFEALNLSFKNMCILKPLLEKWLNDAESSP [K59I] | -0.037 ± 0.1 |
| SDLEELEKFAKTFKQRRIKLGFTQGDVGLAMGKLYGNDFSQTTISRFEALNLSFKNMCPLKPLLEKWLNDAESSP [K59P] | -0.733 ± 0.081 |
| SDLEELEKFAKTFKQRRIKLGFTQGDVGLAMGKLYGNDFSQTTISRFEALNLSFKNMCALKPLLEKWLNDAESSP [K59A] | -0.013 ± 0.03 |
| SDLEELEKFAKTFKQRRIKLGFTQGDVGLAMGKLYGNDFSDTTISRFEALNLSFKNMCKLKPLLEKWLNDAESSP [Q41D] | -0.066 ± 0.063 |
| SDLEELEKFAKTFKQRRIKLGFTQGDVGLAMGKLYGNDFSTTTISRFEALNLSFKNMCKLKPLLEKWLNDAESSP [Q41T] | -0.04 ± 0.033 |
| SDLEELEKFAKTFKQRRIKLGFTQGDVGLAMGKLYGNDFSCTTISRFEALNLSFKNMCKLKPLLEKWLNDAESSP [Q41C] | -0.062 ± 0.053 |
| SDLEELEKFAKTFKQRRIKLGFTQGDVGLAMGKLYGNDFSQTTISRFFALNLSFKNMCKLKPLLEKWLNDAESSP [E48F] | -0.708 ± 0.12 |
| SDLEELEKFAKTFKQRRIKLGFTQGDVGLAMGKLYGNDFSQTTISRFVALNLSFKNMCKLKPLLEKWLNDAESSP [E48V] | -1.04 ± 0.13 |
| SDLEELEKFAKTFKQRRIKLGFTQGDVGLAMGKLYGNDFSQTTISRFMALNLSFKNMCKLKPLLEKWLNDAESSP [E48M] | -0.798 ± 0.1 |

| Variant | abundance fitness |
| --- | --- |
| SDLEELEKFAKTFKQRRIKLGFTQGDVGLAMGKLYGNDFSQTTISRFEALNLSFKNMCKLKPLLEKWLNDWESSP [A71W] | -0.076 ± 0.039 |
| SDLEELEKFAKTFKQRRIKLGETQGDVGLAMGKLYGNDFSQTTISRFEALNLSFKNMCKLKPLLEKWLNDAESSP [F22E] | -0.412 ± 0.39 |
| SDLEELEKFAKTFKQRRIKLGFTQGDVGLAMGKLYGNDFSQTTISRFEALNLSFKNMCKLKPLLEEWLNDAESSP [K66E] | -0.061 ± 0.041 |
| SDLEELEKFAKTFKQRRIKLGFTQGDVGLAMGKLYGNDFSQTTISRFEALNLSFKNMCKLKPLLEFWLNDAESSP [K66F] | -0.248 ± 0.11 |
| SDLEELEKFAKTFKQRRIKLGFTQGDVGLAMGKLYGNDFSQTTISRFEALNLSFKNMCKLKPLLEVWLNDAESSP [K66V] | -0.066 ± 0.035 |
| SDLEELEKFAKTFKQRRIKLGFTQGDVGLAMGKLYGNDFSQTTISRFEALNLSFKNMFKLKPLLEKWLNDAESSP [C58F] | 0.005 ± 0.06 |
| SDLEELEKFAKTFKQRRIKLGFTQGDVGLAMGKLYGNDFSQTTIDRFEALNLSFKNMCKLKPLLEKWLNDAESSP [S45D] | -0.048 ± 0.037 |
| SDLEELEKFAKTFKQRRIKLGFTQGDVGLAMGKLYGNDFSQTTIVRFEALNLSFKNMCKLKPLLEKWLNDAESSP [S45V] | -0.077 ± 0.026 |
| SDLEELEKFAKTFKQRRIKLGFTQGDVGLAMGKLYGNDFSQTTISRPEALNLSFKNMCKLKPLLEKWLNDAESSP [F47P] | -1.09 ± 0.25 |
| SDLEELEKFAKTFKQRRMKLGFTQGDVGLAMGKLYGNDFSQTTISRFEALNLSFKNMCKLKPLLEKWLNDAESSP [I18M] | 0.004 ± 0.034 |
| SDLEELEKFAKTFKQRRPKLGFTQGDVGLAMGKLYGNDFSQTTISRFEALNLSFKNMCKLKPLLEKWLNDAESSP [I18P] | -0.964 ± 0.1 |
| SDLEELEKFAKTFKQRRSKLGFTQGDVGLAMGKLYGNDFSQTTISRFEALNLSFKNMCKLKPLLEKWLNDAESSP [I18S] | -0.072 ± 0.029 |
| SDLEELEKFAKTFKQRRIKLGFTQGDVGLAMGKLYGNDFSQTTPSRFEALNLSFKNMCKLKPLLEKWLNDAESSP [I44P] | -0.919 ± 0.085 |
| SDLEELEKFAKTFKQRRIKLGFTQGDVGLAMGKLYGNDFSQTTQSRFEALNLSFKNMCKLKPLLEKWLNDAESSP [I44Q] | -0.985 ± 0.082 |
| SDLEELEKFAKTFKQRRIKLGFTQGDVGLAMGKLYGNDFSQTTISRFEALNLSFKNMCKLKPLLEKWLNDAESSC [P75C] | -0.076 ± 0.15 |
| SDLEELEKFAKTFKQRRIKLGFTQGDVGLAMGKLYGNDFSQTTISRFEALNLSFKNMCKLKPLLEKWLNHAESSP [D70H] | -0.131 ± 0.15 |
| SDLEELEKFAKTFKQRRIKLGFTQGDVGLAMGKLYGNDFSQTTISRFEALNLSFKNMCKLKPLLEKWLNEAESSP [D70E] | 0.027 ± 0.043 |
| SDLEELEKFAKTFKQRRIKLGFTQGDVGLAMGKLYGNDFSQTTISRFEALNLSFKNMCKLKPLLEKWLNQAESSP [D70Q] | 0.003 ± 0.054 |

— the Human Domainome abundance scans (Beltran et al. 2025)
